Consider 20 substances from patent publication US20180105572A1.

Usually IC50 stands for the concentration that gives 50% inhibition.

The target in test [1] is α4β7 integrin on RPMI 8866 cells (UniProt P13612). As to the kind of experiment: cell-based or functional assay.
For test [2], the target named is rh integrin α4β7 (R&D Systems #5397-A30) (human) (UniProt P13612). Kind of test: α4β7-MAdCAM competition ELISA. For orientation: ELISA stands for enzyme-linked immunosorbent assay.

For “C-N cyclic peptide SEQ ID NO: 477, Cyclo(a-(N-Me-R)-S-D-T-L-a)”, the Cell Adhesion A4B7 (nM); RPMI 8866 cells adhering to plate-bound rh MAdCAM-1/Fc Chimera, MTT read-out in test [1] is > 10000 nM. Turning to “C-N cyclic peptide SEQ ID NO: 478, cyclo<a-(N-Me-R)-S-D-T-L-n>”, the half-maximal inhibitory concentration (IC50) in test [2] is > 1 µM. Turning to “C-N cyclic peptide SEQ ID NO: 479, cyclo<a-(N-Me-R)-S-D-T-L-n>”, the Cell Adhesion A4B7 (nM); RPMI 8866 cells adhering to plate-bound rh MAdCAM-1/Fc Chimera, MTT read-out in test [1] was > 10000 nM. On to “C-N cyclic peptide SEQ ID NO: 480, cyclo<h-(N-Me-R)-S-D-T-L-a>”, for which, in test [2], the IC50 was > 1 µM. On the same count and under the same terms, next, “C-N cyclic peptide SEQ ID NO: 482, cyclo<a-(N-Me-R)-S-D-T-L-e>”: > 1 µM; “C-N cyclic peptide SEQ ID NO: 483, cyclo<a-(N-Me-R)-S-D-T-L-e>”: > 1 µM. With “C-N cyclic peptide SEQ ID NO: 484, cyclo<a-(N-Me-R)-S-D-T-L-e>”, the Cell Adhesion A4B7 (nM); RPMI 8866 cells adhering to plate-bound rh MAdCAM-1/Fc Chimera, MTT read-out in test [1] is > 1000 nM. With “C-N cyclic peptide SEQ ID NO: 485, cyclo<k-(N-Me-R)-S-D-T-L-a>”, in test [2], the IC50 was > 1 µM. The same measure, in the same setting: next, “C-N cyclic peptide SEQ ID NO: 486, cyclo<k-(N-Me-R)-S-D-T-L-a>”: > 1 µM; “C-N cyclic peptide SEQ ID NO: 489, cyclo<a-(N-Me-R)-S-D-T-L-l>”: > 1 µM. On the same count and under the same terms, the figure for “C-N cyclic peptide SEQ ID NO: 490, cyclo<a-(N-Me-R)-S-D-T-L-h>” is > 1 µM. As to “C-N cyclic peptide SEQ ID NO: 492, cyclo<a-(N-Me-R)-S-D-T-L-f>”, in test [2], the IC50 is > 1 µM. Still for that read-out and setting: next, “C-N cyclic peptide SEQ ID NO: 494, cyclo<f-(N-Me-R)-S-D-T-L-a>”: > 1 µM. With “C-N cyclic peptide SEQ ID NO: 495, cyclo<f-(N-Me-R)-S-D-T-L-a>”, the Cell Adhesion A4B7 (nM); RPMI 8866 cells adhering to plate-bound rh MAdCAM-1/Fc Chimera, MTT read-out in test [1] is > 10000 nM.

For the substance “C-N cyclic peptide SEQ ID NO: 496, cyclo<l-(N-Me-R)-S-D-T-L-a>”, in test [2], the IC50 is > 1 µM. Still for that read-out and setting: the figure for “C-N cyclic peptide SEQ ID NO: 498, cyclo<p-(N-Me-R)-S-D-T-L-a>” is > 1 µM. As to “C-N cyclic peptide SEQ ID NO: 500, cyclo<r-(N-Me-R)-S-D-T-L-a>”, the IC50 in test [2] was > 1 µM. The same measure, in the same setting: the figure for “C-N cyclic peptide SEQ ID NO: 502, cyclo<A-(N-Me-R)-S-D-T-L-a>” is > 1 µM; for “C-N cyclic peptide SEQ ID NO: 503, cyclo<A-(N-Me-R)-S-D-T-L-k>” it is > 1 µM; for “C-N cyclic peptide SEQ ID NO: 504, cyclo<a-(N-Me-R)-S-D-T-L-A-a>” it is > 1 µM.
